# Measured values published in patent publication US20250333441A1, “POLYPEPTIDE INHIBITORS AND USES THEREOF” (Neuracle Science Co., Ltd., priority 2021, published 2025).
# Where a SMILES comes first, the peptide text is derived from it. Where no end group is shown, it is not given here. [ ]: non-standard residue; d: D form.
# B1: FB-21 (W12Y13) (peptide)
# peptide: GYTYFTTVTVEWYETQPGEEA
# B2: LRRC4B mutant: LRRC4B (453-576) with alanine substitutions at positions 488 and 489 of SEQ ID NO: 2 (SEQ ID NO: 16) (protein)
# chain: VSAVDPVAAGGTGSGGGGPGGSGGVGGGSGGYTYFAAVTVETLETQPGEEALQPRGTEKEPPGPTTDGVWGGGRPGDAAGPASSSTTAPAPRSSRPTEKAFTVPITDVTENALKDLDDVMKTTK
# modifications: human Fc fusion in use
# Tests used:
# [1] = target: complex of His-TEV LRRC4B and recombinant FAM19A5 protein (Homo sapiens, UniProt Q7Z5A7); assay: Competitive inhibition assay (IC50), plate coated with His-TEV LRRC4B; type: binding; conditions: FIG. 22C; d-form peptides; methods as for Table 15
# Protocol: To further assess the inhibitory effect of the FB-21 mutants, the ability of additional FB-21 mutants described in Example 9 were tested for their ability to inhibit the interaction between FAM19A5 protein and LRRC4B protein. Briefly, plates were coated with 100 nM of His-TEV LRRC4B and then 1 ng/mL of rFAM19A5 was incubated at 37° C. in the presence of increasing concentrations of the FB-21 peptide fragments (0.3, 1, 3, 10, 30, 100, 300, 1000, 3000 and 10000 nM). The LRRC4B-bound FAM19A5 levels were measured using HRP-conjugated 1-65 SS01 antibody. As shown in FIG. 22B (see Table 15 for IC50), most (if not all) of the FB-21 mutants had improved ability in inhibiting the interaction between LRRC4B and recombinant FAM19A5 protein.
# Next, to assess whether other properties of the polypeptides described herein can be improved (e.g., solubility, prevention of degradation from protease and peptidase, and in vivo administration), the following additional FB-21 peptide mutants were constructed and tested for their ability to inhibit the interaction between FAM19A5 protein and LRRC4B: (1) d-form FB-21 peptide (“dFB-21”), (2) d-form FB-21 peptide with juxta-membrane (JM) sequence (“dFB-JM-31”), (3) d-form FB-21 peptide with BBB penetrating sequence at each end of the sequence (“dFB-BBB-39”), and (4) d-form FB-21 mutant peptide with DY replacement and additional JM sequence (“dFB-DY-JM31”). […]
# [2] = target: complex of human LRRC4B protein (hFc-fused) and recombinant FAM19A5 protein (Homo sapiens, UniProt Q7Z5A7); assay: Competitive inhibition assay (IC50), plate coated with LRRC4B(453-576, TT/TT)-hFc; type: binding; conditions: hFc-fused hLRRC4B; from IC50 of Table 14
# Protocol: The in silico analysis provided in Example 9 highlighted that certain T12 and L13 double mutants might be important in improving the binding affinity of the polypeptides of the present disclosure to the FAM19A5 protein. Therefore, the ability of both the wild-type FB-21 peptide (which is the same as the FB-20 peptide described herein except that the FB-21 peptide additionally contains an alanine at the C-terminus) and several FB-21 mutants were tested for their inhibitor effect on hFc-fused hLRRC4B and FAM19A5 complex formation. Briefly, plate was coated with 100 nM of LRRC4B(453-576, TT/TT)-hFc and then 1 ng/mL of rFAM19A5 was incubated at 37° C. in the presence of increasing concentrations of the different FB-21 peptide fragments (0.03, 0.1, 0.3, 1, 3, 10, 30, 100, 300 and 1000 nM). The LRRC4B-bound FAM19A5 levels were measured using HRP-conjugated 1-65 antibody.
# FAM19A5 protein = FAM19A5 protein (Homo sapiens, UniProt Q7Z5A7); assay: competitive inhibition ELISA; competitor: coated LRRC4B(453-576, TT/TT)-hFc
# [3] = target: binding of FAM19A5 protein to full-length ectodomain of LRRC4 protein (Homo sapiens, UniProt Q7Z5A7); assay: Competitive inhibition assay, plate coated with full-length LRRC4 ectodomain; conditions: 100 nM/well coated full-length LRRC4 ectodomain; FAM19A5 5 ng/mL
# Protocol: (§1) As described in Example 3, there appeared to be much similarity in the binding domains of the different members of the LRRC4 family. […] Then, recombinant FAM19A5 protein (5 ng/mL) was added in combination with one of the following: (i) LRRC4B (484-576) protein fragment, (ii) LRRC4B (453-576, AA) protein fragment, and (iii) synthetic FB-20 peptide. The plates were incubated at 37° C., and then, the amount of FAM19A5 protein bound to the coated LRRC4, LRRC4B, or LRRC4C proteins was measured using anti-FAM19A5 (1-65) antibody.
# [4] = target: binding of FAM19A5 protein to full-length ectodomain of the LRRC4B protein (amino acids 36-576)-hFc (Homo sapiens, UniProt Q7Z5A7); assay: Competitive inhibition assay, plate coated with full-length LRRC4B ectodomain; conditions: 100 nM coated ectodomain; FAM19A5 5 ng/mL; increasing concentrations
# Protocol: Next, to further assess the role that the binding domain of the LRRC4B protein has on the interaction between FAM19A5 protein and members of the LRRC4 protein family, a competitive inhibition assay was used to determine whether different LRRC4B deletion constructs from Example 2 could inhibit the binding of FAM19A5 to the full-length ectodomain of the LRRC4B protein (i.e., amino acids 36-576 of SEQ ID NO: 2; SEQ ID NO: 5). Briefly, 100 nM of the full-length ectodomain of the LRRC4B protein was used to coat a plate, and then recombinant FAM19A5 protein (5 ng/mL) was added to the plate in combination with the following LRRC4B deletion constructs (increasing concentrations): (1) LRRC4B (453-576) (i.e., construct #11 in Table 6); (2) LRRC4B (453-576) mutant (comprises alanine substitutions at positions 488 and 489 of SEQ ID NO: 2; SEQ ID NO: 16); (3) LRRC4B (484-576) (i.e., construct #12 in Table 6); (4) LRRC4B (482-576); (5) LRRC4B (482-497); and (6) LRRC4B (498-576). The plates were incubated at 37° C., and then, the amount of FAM19A5 bound to the coated LRRC4B ectodomain protein was measured using H1RP-conjugated anti-FAM19A5 (1-65) antibody. […]
# [5] = target: T1, FAM19A5 (isoform 2) - full-length LRRC4B protein complex (Homo sapiens, UniProt Q7Z5A7); assay: Immunofluorescence: dissociation of FAM19A5 from full-length LRRC4B in HEK293 cells; type: cell-based; conditions: HEK293 cells expressing FAM19A5 isoform 2 and LRRC4B, treated 30 minutes
# T1 construct: expressed in transfected cells; host or cells: HEK293
# Protocol: Since LRRC4B protein fragments containing the binding domain described in Example 2 (e.g., LRRC4B (453-576); i.e., construct #11 in Table 6) was able to bind to FAM19A5 protein with high affinity, it was next assessed whether such protein fragments could compete with naturally existing LRRC4B protein for binding to FAM19A5 protein, and thereby, dissociate the FAM19A5-LRRC4 protein family complex. Briefly, HEK293 cells expressing both FAM19A5 isoform 2 and LRRC4B protein were treated (i.e., cultured in vitro) for 30 minutes with either LRRC4B (453-576)-hFc or mutant LRRC4B (453-576)-hFc (includes alanine substitutions at positions 488 and 489 of SEQ ID NO: 2; SEQ ID NO: 16) protein fragments. Then, the cells were immunostained with anti-FAM19A5 (1-65) and anti-LRRC4B antibodies to determine the expression of FAM19A5 and full-length LRRC4B proteins, respectively. The hFc-fused LRRC4B protein fragments were determined using an anti-hIgG antibody. The nuclei were stained with Hoechst 33342.
# [6] = target: binding of FAM19A5 protein to full-length ectodomain of LRRC4C protein (Homo sapiens, UniProt Q7Z5A7); assay: Competitive inhibition assay, plate coated with full-length LRRC4C ectodomain; conditions: 100 nM/well coated full-length LRRC4C ectodomain; FAM19A5 5 ng/mL
# Protocol: as §1
# T1 sequence (Q7Z5A7 1-125 isoform Q7Z5A7-2, one chain of several): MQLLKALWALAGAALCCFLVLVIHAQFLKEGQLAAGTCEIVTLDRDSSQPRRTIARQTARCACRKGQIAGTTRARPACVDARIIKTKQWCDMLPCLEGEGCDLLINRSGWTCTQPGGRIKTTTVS
# Chain of binding of FAM19A5 protein to full-length ectodomain of the LRRC4B protein (amino acids 36-576)-hFc (Q7Z5A7 44-132): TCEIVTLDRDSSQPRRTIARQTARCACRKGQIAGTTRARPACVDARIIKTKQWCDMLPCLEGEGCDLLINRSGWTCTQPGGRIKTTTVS
# Chain of binding of FAM19A5 protein to full-length ectodomain of LRRC4 protein (Q7Z5A7 44-132): as above
# Chain of complex of human LRRC4B protein (hFc-fused) and recombinant FAM19A5 protein (Q7Z5A7 44-132, one chain of several): as the sequence (Q7Z5A7 44-132) above
# Chain of complex of His-TEV LRRC4B and recombinant FAM19A5 protein (Q7Z5A7 44-132, one chain of several): as the sequence (Q7Z5A7 44-132) above
# Chain of binding of FAM19A5 protein to full-length ectodomain of LRRC4C protein (Q7Z5A7 44-132): as above
molecule,measurement,setting,value
nYTYFTTVTVEDYETQPGEEALDEVMKTTKa ([dN]YTYFTTVTVEDYETQPGEEALDEVMKTTK[dA]; also: terminal modifications) [dFB-DY-JM31],more effective in inhibiting complex formation compared to the wild-type FB-21,[1],4 fold
CC(C)[C@H](NC(=O)[C@@H](NC(=O)[C@@H](NC(=O)[C@@H](NC(=O)[C@@H](NC(=O)[C@H](Cc1ccccc1)NC(=O)[C@H](Cc1ccc(O)cc1)NC(=O)[C@@H](NC(=O)[C@H](Cc1ccc(O)cc1)NC(=O)CN)[C@@H](C)O)[C@@H](C)O)[C@@H](C)O)C(C)C)[C@@H](C)O)C(=O)N[C@@H](CCC(=O)O)C(=O)N[C@@H](Cc1c[nH]c2ccccc12)C(=O)N[C@@H](Cc1ccc(O)cc1)C(=O)N[C@@H](CCC(=O)O)C(=O)N[C@H](C(=O)N[C@@H](CCC(N)=O)C(=O)N1CCC[C@H]1C(=O)NCC(=O)N[C@@H](CCC(=O)O)C(=O)N[C@@H](CCC(=O)O)C(=O)N[C@@H](C)C(=O)O)[C@@H](C)O [FB-21 (W12Y13)] (H-GYTYFTTVTVEWYETQPGEEA-OH; N-terminus and C-terminus assumed),increase in ability to dissociate the LRRC4B-FAM19A5 complex compared with wild-type FB-21,[2],2.9 fold
B1,"fold increase in ability to dissociate the LRRC4B-FAM19A5 complex, against wild-type FB-21",FAM19A5 protein,2.9 fold
B2,inhibition of FAM19A5 binding to coated LRRC4 protein,[3],minimal effect
same,inhibition of FAM19A5 binding to coated full-length LRRC4B ectodomain protein,[4],much inferior in their ability to inhibit the interaction
same,dissociation of FAM19A5 from full-length LRRC4B protein,[5],FAM19A5 protein remained largely bound
same,inhibition of FAM19A5 binding to coated LRRC4C protein,[6],minimal effect
